Source: article PMC9352680, “A comprehensive thermodynamic model for RNA binding by the Saccharomyces cerevisiae Pumilio protein PUF4”

T1: PUF4 RNA-binding domain (Saccharomyces cerevisiae, UniProt P25339 537-888)
T1 sequence: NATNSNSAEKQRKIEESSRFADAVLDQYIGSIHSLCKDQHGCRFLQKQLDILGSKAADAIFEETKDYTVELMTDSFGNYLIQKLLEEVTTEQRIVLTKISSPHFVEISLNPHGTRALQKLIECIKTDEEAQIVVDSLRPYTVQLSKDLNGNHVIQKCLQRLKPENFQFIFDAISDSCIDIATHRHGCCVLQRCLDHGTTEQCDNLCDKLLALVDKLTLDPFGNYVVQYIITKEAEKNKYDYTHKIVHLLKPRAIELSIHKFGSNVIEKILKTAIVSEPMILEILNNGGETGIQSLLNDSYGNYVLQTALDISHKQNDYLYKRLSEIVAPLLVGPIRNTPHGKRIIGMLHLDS


Each binder was assayed against T1, PUF4 RNA-binding domain (assay: Mg; RNA-MaP; 20 mM Na-HEPES pH 7.4, 30 mM KOAc, 0.75 mM MgCl2, 0.1% Tween-20, 5% glycerol, 0.1 mg/mL BSA, 2 mM DTT; 25 C; 0.0125-409.6 nM protein). Conditions: tags: N-His6-TEV cleaved; C-SNAP kept, Cy3B-labelled; label: tethered on chip by stalled RNA polymerase.

| Binder | Kd [nM] |
| --- | --- |
| Ic_S4_P4E.1_K4.1_C4.1_H4.1_A4.1_[T5C]_[A6G]_[T7C]_F4.1_[T8G]_[A9G]_T4.1 (ssRNA) RNA: UUUGACAACUGAUCGUUCUUUCUUGUACGCGGUUCUUUCUCGAUCAGUUGUCUUU | 1800 |
| Ic_S4_P4E.1_K4.1_C4.1_H4.1_A4.1_[T5G]_[A6C]_F4.1_[A9T]_T4.1 (ssRNA) RNA: UUUGACAACUGAUCGUUCUUUCUUGUAGCUUUUUCUUUCUCGAUCAGUUGUCUUU | 40.5 |
| Ic_S4_P4E.1_K4.1_C4.1_H4.1_A4.1_[T5G]_[A6T]_[T7A]_F4.1_[A9T]_T4.1 (ssRNA) RNA: UUUGACAACUGAUCGUUCUUUCUUGUAGUAUUUUCUUUCUCGAUCAGUUGUCUUU | 40.6 |
| Ic_S4_P4E.1_K4.1_C4.1_H4.1_A4.1_[T5G]_[A6T]_[T7C]_F4.1_[T8C]_[A9C]_T4.1 (ssRNA) RNA: UUUGACAACUGAUCGUUCUUUCUUGUAGUCCCUUCUUUCUCGAUCAGUUGUCUUU | 514 |
| Ic_S4_P4E.1_K4.1_C4.1_H4.1_A4.1_[T5G]_[A6T]_[T7A]_F4.1_[T8G]_[A9T]_T4.1 (ssRNA) RNA: UUUGACAACUGAUCGUUCUUUCUUGUAGUAGUUUCUUUCUCGAUCAGUUGUCUUU | 649 |
| Ic_S4_P4E.1_K4.1_C4.1_H4.1_A4.1_[T5G]_[A6T]_F4.1_[T8G]_[A9T]_T4.1 (ssRNA) RNA: UUUGACAACUGAUCGUUCUUUCUUGUAGUUGUUUCUUUCUCGAUCAGUUGUCUUU | 291 |
| Ic_S4_P4E.1_K4.1_C4.1_H4.1_A4.1_[T5C]_[A6G]_F4.1_[T8G]_[A9T]_T4.1 (ssRNA) RNA: UUUGACAACUGAUCGUUCUUUCUUGUACGUGUUUCUUUCUCGAUCAGUUGUCUUU | 33.7 |
| Ic_S4_P4E.1_K4.1_C4.1_H4.1_A4.1_[T5G]_[A6C]_F4.1_[T8C]_T4.1 (ssRNA) RNA: UUUGACAACUGAUCGUUCUUUCUUGUAGCUCAUUCUUUCUCGAUCAGUUGUCUUU | 365 |
| Ic_S4_P4E.1_K4.1_C4.1_H4.1_A4.1_[T5G]_[A6T]_[T7A]_F4.1_[A9G]_T4.1 (ssRNA) RNA: UUUGACAACUGAUCGUUCUUUCUUGUAGUAUGUUCUUUCUCGAUCAGUUGUCUUU | 37.3 |
| Ic_S4_P4E.1_K4.1_C4.1_H4.1_A4.1_[T5G]_[A6T]_[T7A]_F4.1_[T8C]_[A9G]_T4.1 (ssRNA) RNA: UUUGACAACUGAUCGUUCUUUCUUGUAGUACGUUCUUUCUCGAUCAGUUGUCUUU | 688 |
| Ic_S4_P4E.1_K4.1_C4.1_H4.1_A4.1_[T5C]_[A6G]_[T7G]_F4.1_[A9T]_T4.1 (ssRNA) RNA: UUUGACAACUGAUCGUUCUUUCUUGUACGGUUUUCUUUCUCGAUCAGUUGUCUUU | 158 |
| Ic_S4_P4E.1_K4.1_C4.1_H4.1_A4.1_[T5G]_[A6T]_[T7A]_F4.1_[T8C]_[A9T]_T4.1 (ssRNA) RNA: UUUGACAACUGAUCGUUCUUUCUUGUAGUACUUUCUUUCUCGAUCAGUUGUCUUU | 285 |
| Ic_S4_P4E.1_K4.1_C4.1_H4.1_A4.1_[T5G]_[A6T]_[T7C]_F4.1_[T8G]_[A9T]_T4.1 (ssRNA) RNA: UUUGACAACUGAUCGUUCUUUCUUGUAGUCGUUUCUUUCUCGAUCAGUUGUCUUU | 616 |
| Ic_S4_P4E.1_K4.1_C4.1_H4.1_A4.1_[T5C]_[A6G]_[T7C]_F4.1_T4.1 (ssRNA) RNA: UUUGACAACUGAUCGUUCUUUCUUGUACGCUAUUCUUUCUCGAUCAGUUGUCUUU | 2.22 |
| Ic_S4_P4E.1_K4.1_C4.1_H4.1_A4.1_[T5C]_[A6G]_[T7A]_F4.1_[T8C]_T4.1 (ssRNA) RNA: UUUGACAACUGAUCGUUCUUUCUUGUACGACAUUCUUUCUCGAUCAGUUGUCUUU | 436 |
| Ic_S4_P4E.1_K4.1_C4.1_H4.1_A4.1_[T5G]_[A6T]_[T7A]_F4.1_[T8A]_[A9C]_T4.1 (ssRNA) RNA: UUUGACAACUGAUCGUUCUUUCUUGUAGUAACUUCUUUCUCGAUCAGUUGUCUUU | 977 |
| Ic_S4_P4E.1_K4.1_C4.1_H4.1_A4.1_[T5C]_[A6G]_[T7C]_F4.1_[T8A]_[A9G]_T4.1 (ssRNA) RNA: UUUGACAACUGAUCGUUCUUUCUUGUACGCAGUUCUUUCUCGAUCAGUUGUCUUU | 1470 |
| Ic_S4_P4E.1_K4.1_C4.1_H4.1_A4.1_[T5G]_[A6T]_[T7C]_F4.1_[A9C]_T4.1 (ssRNA) RNA: UUUGACAACUGAUCGUUCUUUCUUGUAGUCUCUUCUUUCUCGAUCAGUUGUCUUU | 155 |
| Ic_S4_P4E.1_K4.1_C4.1_H4.1_A4.1_[T5C]_[A6G]_F4.1_[T8C]_[A9G]_T4.1 (ssRNA) RNA: UUUGACAACUGAUCGUUCUUUCUUGUACGUCGUUCUUUCUCGAUCAGUUGUCUUU | 395 |
| Ic_S4_P4E.1_K4.1_C4.1_H4.1_A4.1_[T5G]_[A6T]_F4.1_[A9G]_T4.1 (ssRNA) RNA: UUUGACAACUGAUCGUUCUUUCUUGUAGUUUGUUCUUUCUCGAUCAGUUGUCUUU | 65 |
| Ic_S4_P4E.1_K4.1_C4.1_H4.1_A4.1_[T5G]_[A6T]_[T7A]_F4.1_[A9C]_T4.1 (ssRNA) RNA: UUUGACAACUGAUCGUUCUUUCUUGUAGUAUCUUCUUUCUCGAUCAGUUGUCUUU | 173 |
| Ic_S4_P4E.1_K4.1_C4.1_H4.1_A4.1_[T5G]_[A6T]_[T7C]_F4.1_[T8C]_T4.1 (ssRNA) RNA: UUUGACAACUGAUCGUUCUUUCUUGUAGUCCAUUCUUUCUCGAUCAGUUGUCUUU | 445 |
| Ic_S4_P4E.1_K4.1_C4.1_H4.1_A4.1_[T5G]_[A6T]_[T7G]_F4.1_[T8C]_[A9T]_T4.1 (ssRNA) RNA: UUUGACAACUGAUCGUUCUUUCUUGUAGUGCUUUCUUUCUCGAUCAGUUGUCUUU | 467 |
| Ic_S4_P4E.1_K4.1_C4.1_H4.1_A4.1_[T5G]_[A6T]_[T7A]_F4.1_T4.1 (ssRNA) RNA: UUUGACAACUGAUCGUUCUUUCUUGUAGUAUAUUCUUUCUCGAUCAGUUGUCUUU | 2.95 |
| UCUCUUUGUUUAUUUUCUCUU (ssRNA) [Ib_S1_P4E.1_K4.1_C4.1_H4.1_[A4T]_A4.1_F4.1_[A9T]_T4.1] | 353 |
